According to the Human Domainome abundance scans (Beltran et al. 2025):
± gives the uncertainty stated by the source.

Assay: abundance fitness (aPCA) (normalised: wild type 0, dead -1); higher = more abundant; growth selection in yeast, the domain comes from the species named
Conditions: Homo sapiens
Work on “DnaJ homolog subfamily B member 1 F45D, P25685” yielded an abundance fitness of -0.352 ± 0.076. In the case of “DnaJ homolog subfamily B member 1 F45E, P25685”, the abundance fitness is reported as -0.277 ± 0.095. “DnaJ homolog subfamily B member 1 F45G, P25685” gave an abundance fitness of -0.247 ± 0.089. In the case of “DnaJ homolog subfamily B member 1 F45H, P25685”, the abundance fitness is reported as -0.096 ± 0.17. For “DnaJ homolog subfamily B member 1 F45I, P25685”, the abundance fitness was -0.158 ± 0.07. Substance “DnaJ homolog subfamily B member 1 F45K, P25685” has an abundance fitness of -0.444 ± 0.16. In the case of “DnaJ homolog subfamily B member 1 F45L, P25685”, the abundance fitness is reported as -0.21 ± 0.055. For “DnaJ homolog subfamily B member 1 F45M, P25685”, the abundance fitness was -0.305 ± 0.092. With “DnaJ homolog subfamily B member 1 F45N, P25685” the abundance fitness was -0.221 ± 0.1. Substance “DnaJ homolog subfamily B member 1 F45P, P25685” has an abundance fitness of -0.508 ± 0.072. Work on “DnaJ homolog subfamily B member 1 F45Q, P25685” yielded an abundance fitness of -0.211 ± 0.11. For “DnaJ homolog subfamily B member 1 F45R, P25685”, the abundance fitness was -0.185 ± 0.062. Work on “DnaJ homolog subfamily B member 1 F45S, P25685” yielded an abundance fitness of -0.143 ± 0.085. For “DnaJ homolog subfamily B member 1 F45T, P25685”, the abundance fitness was -0.281 ± 0.075. “DnaJ homolog subfamily B member 1 F45V, P25685” gave an abundance fitness of -0.306 ± 0.061. “DnaJ homolog subfamily B member 1 F45W, P25685” gave an abundance fitness of 0 ± 0.099. For “DnaJ homolog subfamily B member 1 F45Y, P25685”, the abundance fitness was -0.178 ± 0.17. In the case of “DnaJ homolog subfamily B member 1 F64A, P25685”, the abundance fitness is reported as -0.361 ± 0.3. Work on “DnaJ homolog subfamily B member 1 F64Q, P25685” yielded an abundance fitness of -0.344 ± 0.28. “DnaJ homolog subfamily B member 1 F64S, P25685” gave an abundance fitness of -0.109 ± 0.23. “DnaJ homolog subfamily B member 1 F64Y, P25685” gave an abundance fitness of 0.009 ± 0.48. “DnaJ homolog subfamily B member 1 G10C, P25685” gave an abundance fitness of -0.587 ± 0.26. “DnaJ homolog subfamily B member 1 G10D, P25685” showed an abundance fitness of -0.141 ± 0.074. With “DnaJ homolog subfamily B member 1 G10E, P25685” the abundance fitness was 0.073 ± 0.2. Substance “DnaJ homolog subfamily B member 1 G10F, P25685” has an abundance fitness of -0.542 ± 0.13. In the case of “DnaJ homolog subfamily B member 1 G10H, P25685”, the abundance fitness is reported as -0.378 ± 0.14. “DnaJ homolog subfamily B member 1 G10I, P25685” showed an abundance fitness of -0.756 ± 0.19. “DnaJ homolog subfamily B member 1 G10K, P25685” gave an abundance fitness of -0.108 ± 0.1. Work on “DnaJ homolog subfamily B member 1 G10L, P25685” yielded an abundance fitness of -0.223 ± 0.058. In the case of “DnaJ homolog subfamily B member 1 G10M, P25685”, the abundance fitness is reported as -0.191 ± 0.085. Work on “DnaJ homolog subfamily B member 1 G10N, P25685” yielded an abundance fitness of -0.333 ± 0.25. “DnaJ homolog subfamily B member 1 G10P, P25685” showed an abundance fitness of -0.926 ± 0.21. For “DnaJ homolog subfamily B member 1 G10Q, P25685”, the abundance fitness was -0.048 ± 0.083. In the case of “DnaJ homolog subfamily B member 1 G10R, P25685”, the abundance fitness is reported as -0.239 ± 0.066. Substance “DnaJ homolog subfamily B member 1 G10S, P25685” has an abundance fitness of -0.163 ± 0.061. Substance “DnaJ homolog subfamily B member 1 G10T, P25685” has an abundance fitness of -0.564 ± 0.16. Substance “DnaJ homolog subfamily B member 1 G10V, P25685” has an abundance fitness of -0.606 ± 0.087. In the case of “DnaJ homolog subfamily B member 1 G10W, P25685”, the abundance fitness is reported as -0.704 ± 0.12. Substance “DnaJ homolog subfamily B member 1 G10Y, P25685” has an abundance fitness of -0.658 ± 0.12. In the case of “DnaJ homolog subfamily B member 1 G14A, P25685”, the abundance fitness is reported as -0.353 ± 0.13. For “DnaJ homolog subfamily B member 1 G14C, P25685”, the abundance fitness was -0.266 ± 0.12. Substance “DnaJ homolog subfamily B member 1 G14E, P25685” has an abundance fitness of -0.192 ± 0.078. “DnaJ homolog subfamily B member 1 G14F, P25685” gave an abundance fitness of -0.446 ± 0.2. For “DnaJ homolog subfamily B member 1 G14H, P25685”, the abundance fitness was -0.133 ± 0.24. In the case of “DnaJ homolog subfamily B member 1 G14I, P25685”, the abundance fitness is reported as -0.235 ± 0.12. With “DnaJ homolog subfamily B member 1 G14K, P25685” the abundance fitness was -0.13 ± 0.093. For “DnaJ homolog subfamily B member 1 G14L, P25685”, the abundance fitness was -0.266 ± 0.074. “DnaJ homolog subfamily B member 1 G14M, P25685” gave an abundance fitness of -0.385 ± 0.096. In the case of “DnaJ homolog subfamily B member 1 G14N, P25685”, the abundance fitness is reported as -0.232 ± 0.15. “DnaJ homolog subfamily B member 1 G14P, P25685” showed an abundance fitness of -0.347 ± 0.12. Work on “DnaJ homolog subfamily B member 1 G14Q, P25685” yielded an abundance fitness of -0.251 ± 0.091. In the case of “DnaJ homolog subfamily B member 1 G14R, P25685”, the abundance fitness is reported as -0.274 ± 0.056. Substance “DnaJ homolog subfamily B member 1 G14S, P25685” has an abundance fitness of -0.126 ± 0.042. For “DnaJ homolog subfamily B member 1 G14T, P25685”, the abundance fitness was -0.072 ± 0.092. In the case of “DnaJ homolog subfamily B member 1 G14V, P25685”, the abundance fitness is reported as -0.241 ± 0.11. “DnaJ homolog subfamily B member 1 G14Y, P25685” showed an abundance fitness of -0.378 ± 0.32. With “DnaJ homolog subfamily B member 1 G40A, P25685” the abundance fitness was -0.128 ± 0.1. For “DnaJ homolog subfamily B member 1 G40C, P25685”, the abundance fitness was -0.113 ± 0.16. Work on “DnaJ homolog subfamily B member 1 G40D, P25685” yielded an abundance fitness of -0.301 ± 0.078. Work on “DnaJ homolog subfamily B member 1 G40E, P25685” yielded an abundance fitness of -0.194 ± 0.1. For “DnaJ homolog subfamily B member 1 G40F, P25685”, the abundance fitness was -0.049 ± 0.13. “DnaJ homolog subfamily B member 1 G40H, P25685” showed an abundance fitness of -0.131 ± 0.15. Work on “DnaJ homolog subfamily B member 1 G40I, P25685” yielded an abundance fitness of -0.026 ± 0.13. For “DnaJ homolog subfamily B member 1 G40K, P25685”, the abundance fitness was 0.005 ± 0.15. In the case of “DnaJ homolog subfamily B member 1 G40L, P25685”, the abundance fitness is reported as -0.188 ± 0.1. With “DnaJ homolog subfamily B member 1 G40M, P25685” the abundance fitness was -0.14 ± 0.1. “DnaJ homolog subfamily B member 1 G40N, P25685” showed an abundance fitness of -0.173 ± 0.18. “DnaJ homolog subfamily B member 1 G40P, P25685” showed an abundance fitness of -0.248 ± 0.12. “DnaJ homolog subfamily B member 1 G40Q, P25685” showed an abundance fitness of -0.103 ± 0.14. “DnaJ homolog subfamily B member 1 G40R, P25685” gave an abundance fitness of -0.041 ± 0.088. With “DnaJ homolog subfamily B member 1 G40S, P25685” the abundance fitness was -0.195 ± 0.086. For “DnaJ homolog subfamily B member 1 G40V, P25685”, the abundance fitness was -0.133 ± 0.079. With “DnaJ homolog subfamily B member 1 G40Y, P25685” the abundance fitness was -0.182 ± 0.15. In the case of “DnaJ homolog subfamily B member 1 H32A, P25685”, the abundance fitness is reported as -0.154 ± 0.16. “DnaJ homolog subfamily B member 1 H32C, P25685” gave an abundance fitness of -0.106 ± 0.14. “DnaJ homolog subfamily B member 1 H32D, P25685” showed an abundance fitness of -0.241 ± 0.23. With “DnaJ homolog subfamily B member 1 H32E, P25685” the abundance fitness was 0.035 ± 0.091. Work on “DnaJ homolog subfamily B member 1 H32F, P25685” yielded an abundance fitness of -0.139 ± 0.16. “DnaJ homolog subfamily B member 1 H32G, P25685” showed an abundance fitness of -0.007 ± 0.072. Work on “DnaJ homolog subfamily B member 1 H32I, P25685” yielded an abundance fitness of -0.246 ± 0.12. “DnaJ homolog subfamily B member 1 H32K, P25685” gave an abundance fitness of -0.777 ± 0.16. “DnaJ homolog subfamily B member 1 H32L, P25685” showed an abundance fitness of -0.025 ± 0.082. With “DnaJ homolog subfamily B member 1 H32M, P25685” the abundance fitness was 0.014 ± 0.089. In the case of “DnaJ homolog subfamily B member 1 H32N, P25685”, the abundance fitness is reported as 0.017 ± 0.15. For “DnaJ homolog subfamily B member 1 H32P, P25685”, the abundance fitness was -0.199 ± 0.14. “DnaJ homolog subfamily B member 1 H32R, P25685” showed an abundance fitness of -0.057 ± 0.061. Substance “DnaJ homolog subfamily B member 1 H32S, P25685” has an abundance fitness of 0.05 ± 0.073. Work on “DnaJ homolog subfamily B member 1 H32T, P25685” yielded an abundance fitness of -0.048 ± 0.072. Work on “DnaJ homolog subfamily B member 1 H32W, P25685” yielded an abundance fitness of -0.155 ± 0.075. With “DnaJ homolog subfamily B member 1 H32Y, P25685” the abundance fitness was -0.192 ± 0.21. Substance “DnaJ homolog subfamily B member 1 I20A, P25685” has an abundance fitness of -0.63 ± 0.092. With “DnaJ homolog subfamily B member 1 I20C, P25685” the abundance fitness was -0.431 ± 0.079. In the case of “DnaJ homolog subfamily B member 1 I20D, P25685”, the abundance fitness is reported as -0.766 ± 0.17. For “DnaJ homolog subfamily B member 1 I20E, P25685”, the abundance fitness was -0.956 ± 0.15. “DnaJ homolog subfamily B member 1 I20F, P25685” gave an abundance fitness of -0.708 ± 0.1. “DnaJ homolog subfamily B member 1 I20G, P25685” showed an abundance fitness of -0.9 ± 0.071. “DnaJ homolog subfamily B member 1 I20H, P25685” gave an abundance fitness of -0.948 ± 0.13. For “DnaJ homolog subfamily B member 1 I20K, P25685”, the abundance fitness was -0.86 ± 0.087. “DnaJ homolog subfamily B member 1 I20L, P25685” showed an abundance fitness of -0.143 ± 0.076. “DnaJ homolog subfamily B member 1 I20M, P25685” gave an abundance fitness of -0.575 ± 0.12. Substance “DnaJ homolog subfamily B member 1 I20N, P25685” has an abundance fitness of -1.02 ± 0.11. With “DnaJ homolog subfamily B member 1 I20P, P25685” the abundance fitness was -1.26 ± 0.17. For “DnaJ homolog subfamily B member 1 I20Q, P25685”, the abundance fitness was -0.759 ± 0.13.
